Data reported in patent publication US20140057332A1, “GLUCO-OLIGOSACCHARIDE OXIDASES FROM ACREMONIUM STRICTUM AND USES THEREOF” (The Governing Council of the University of Toronto, priority 2011, published 2014).

Tests used:
[1] = tested on: Acremonium strictum strain T1 gluco-oligosaccharide oxidase GOOX-T1; details: cited from earlier work
[2] = tested on: Acremonium strictum gluco-oligosaccharide oxidase (GOOX); details: oxidation of maltose, Fan et al. (2000); cited from earlier work
[3] = biological target: T1, Acremonium strictum gluco-oligosaccharide oxidase GOOX-VN (type strain CBS 346.70, V38 and N388), SEQ ID NO. 2 (Sarocladium strictum, UniProt D7PF15, A38V/S388N); assay: Enzymatic assay, kinetic analysis (chromogenic H2O2 assay) of GOOX-VN; details: 37° C., pH 8.0
T1 sequence (D7PF15 1-474 A38V/S388N): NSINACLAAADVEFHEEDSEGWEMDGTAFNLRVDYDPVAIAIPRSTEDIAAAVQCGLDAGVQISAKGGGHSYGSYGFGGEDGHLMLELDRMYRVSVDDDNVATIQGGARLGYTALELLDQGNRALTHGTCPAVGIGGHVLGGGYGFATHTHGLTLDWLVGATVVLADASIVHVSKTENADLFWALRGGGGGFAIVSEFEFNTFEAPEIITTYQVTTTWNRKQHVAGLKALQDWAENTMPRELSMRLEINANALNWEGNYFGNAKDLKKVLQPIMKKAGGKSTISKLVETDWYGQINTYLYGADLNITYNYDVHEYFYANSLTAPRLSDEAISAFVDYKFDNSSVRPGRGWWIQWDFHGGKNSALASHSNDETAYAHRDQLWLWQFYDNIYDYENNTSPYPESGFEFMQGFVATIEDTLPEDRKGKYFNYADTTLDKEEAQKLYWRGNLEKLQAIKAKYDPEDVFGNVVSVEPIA
Description: (§1) A chromogenic assay was used to measure hydrogen peroxide production (15). Reactions contained 0.1 mM 4aminoantipyrine (4AA), 1 mM phenol, 0.5 U horseradish peroxidase, 40 mM Tris-HCl (pH 8.0), and different substrates were initiated by adding 0.2 μg of enzymes to the 250 μL reaction mixture. The production of H2O2 was coupled to the oxidation of 4aminoantipyrine by horseradish peroxidase and detected at 500 nm. Reactions were incubated at 37° C. for 15 min to measure the specific activity of GOOX on 10 mM of monosaccharide or 1 mM of oligosaccharide.
(§2) At least 12 substrate concentrations were included to obtain kinetic parameters for each substrate. Initial rates were obtained by measuring reaction products every 30 s for 15 min at 37° C. and pH 8.0, and kinetic parameters were calculated using the Michaelis-Menten equation (GraphPad Prism5 Software).

[4] = biological target: T2, Acremonium strictum gluco-oligosaccharide oxidase GOOX-VN variant 1 Y300A, SEQ ID NO. 6 (Sarocladium strictum, UniProt D7PF15, A38V/S388N/Y300A); assay: Enzymatic assay, kinetic analysis (chromogenic H2O2 assay) of Y300A; details: 37° C., pH 8.0
T2 sequence (D7PF15 1-474 A38V/Y300A/S388N): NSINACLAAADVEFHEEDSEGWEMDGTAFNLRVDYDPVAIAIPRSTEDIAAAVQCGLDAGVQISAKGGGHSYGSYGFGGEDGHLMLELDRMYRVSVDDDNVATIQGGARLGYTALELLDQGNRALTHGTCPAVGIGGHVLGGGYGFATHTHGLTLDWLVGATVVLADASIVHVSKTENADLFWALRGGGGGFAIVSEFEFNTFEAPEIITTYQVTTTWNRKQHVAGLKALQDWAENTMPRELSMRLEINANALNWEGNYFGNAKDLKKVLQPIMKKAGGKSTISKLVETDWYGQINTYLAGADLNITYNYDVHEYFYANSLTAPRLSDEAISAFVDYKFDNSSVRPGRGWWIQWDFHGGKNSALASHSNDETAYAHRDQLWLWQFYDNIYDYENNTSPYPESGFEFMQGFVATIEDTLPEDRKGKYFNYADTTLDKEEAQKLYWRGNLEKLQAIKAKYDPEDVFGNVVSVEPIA
Description: as §1, §2

[5] = biological target: T3, Acremonium strictum gluco-oligosaccharide oxidase GOOX-VN variant 2 Y300N, SEQ ID NO. 7 (Sarocladium strictum, UniProt D7PF15, A38V/S388N/Y300N); assay: Enzymatic assay, kinetic analysis (chromogenic H2O2 assay) of Y300N; details: 37° C., pH 8.0
T3 sequence (D7PF15 1-474 A38V/Y300N/S388N): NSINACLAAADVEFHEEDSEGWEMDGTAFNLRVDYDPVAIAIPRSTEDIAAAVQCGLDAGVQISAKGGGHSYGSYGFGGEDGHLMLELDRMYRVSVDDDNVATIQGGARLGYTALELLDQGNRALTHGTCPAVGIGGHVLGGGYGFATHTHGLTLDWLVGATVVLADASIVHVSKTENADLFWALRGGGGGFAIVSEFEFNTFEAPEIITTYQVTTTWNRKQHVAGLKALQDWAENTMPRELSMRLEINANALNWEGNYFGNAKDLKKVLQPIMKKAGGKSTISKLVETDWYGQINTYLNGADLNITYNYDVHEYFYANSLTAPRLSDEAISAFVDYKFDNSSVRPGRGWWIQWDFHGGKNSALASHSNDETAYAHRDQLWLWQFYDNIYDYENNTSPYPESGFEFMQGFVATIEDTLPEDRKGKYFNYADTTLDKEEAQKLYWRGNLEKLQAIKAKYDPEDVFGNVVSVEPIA
Description: as §1, §2

[6] = Effect of deglycosylation with PNGaseF on enzyme activity; type: biochemical; details: 10 mM maltose, 15 min at 37° C., duplicate
Description: Approximately 2 μg of purified enzyme was treated with PNGaseF (New England Biolabs) using denaturing and native conditions. Samples that were deglycosylated using denaturing conditions were analysed by SDS PAGE, while samples deglycosylated using native conditions were used to evaluate the impact of glycosylation on enzyme activity. The activity of enzymes was measured on 10 mM maltose at 37° C. for 15 min. (Table 7). N-glycosylation was predicted by NetNGlyc (http://www.cbs.dtu.dk/services/NetNGlyc/) while O-glycosylation was predicted by OGPET (http://ogpet.utep.edu/OGPET/).

[7] = Kinetic analyses, all tested substrates; type: biochemical; details: all tested monosaccharides and oligosaccharides
Description: as §1, §2

[8] = Chromogenic H2O2 oxidase assay on mannose
Description: as §1
An additional eight mutations, identified as Y72F, Y72A, E247A, E314A, W351A, N388S, Q353N, Q384A, were created in GOOX-VN to assess the influence of these residues on the substrate selectivity of GOOX-VN. […] The specific activity of each mutant was then measured at 37° C. for 15 min using 10 mM mono-sugars and 1 mM oligosaccharides as performed for Y300A, Y300N, and W351F (Table 11).

[9] = substrate: CC(=O)N[C@H]1C(O)O[C@H](CO)[C@@H](O)[C@@H]1O; assay: purified protein, by the assay type; details: other: 37° C., pH 8.0
Description: as §1, §2

[10] = substrate: OC1OC[C@@H](O)[C@H](O)[C@H]1O; assay: purified protein, by the assay type; details: other: 37° C., pH 8.0
Description: as §1, §2

[11] = substrate: OC1OC[C@@H](O[C@@H]2OC[C@@H](O)[C@H](O)[C@H]2O)[C@H](O)[C@H]1O; assay: purified protein, by the assay type; details: other: 37° C., pH 8.0
Description: as §1, §2

[12] = substrate: OC1OC[C@@H](O[C@@H]2OC[C@@H](O[C@@H]3OC[C@@H](O)[C@H](O)[C@H]3O)[C@H](O)[C@H]2O)[C@H](O)[C@H]1O; assay: purified protein, by the assay type; details: other: 37° C., pH 8.0
Description: as §1, §2

[13] = substrate: OC[C@H]1OC(O)[C@H](O)[C@@H](O)[C@@H]1O; assay: purified protein, by the assay type; details: other: 37° C., pH 8.0
Description: as §1, §2

[14] = substrate: OC[C@H]1OC(O)[C@H](O)[C@@H](O)[C@H]1O; assay: purified protein, by the assay type; details: other: 37° C., pH 8.0
Description: as §1, §2

[15] = substrate: OC[C@H]1O[C@@H](O[C@H]2[C@H](O)[C@@H](O)C(O)O[C@@H]2CO)[C@H](O)[C@@H](O)[C@@H]1O; assay: purified protein, by the assay type; details: other: 37° C., pH 8.0
Description: as §1, §2

[16] = substrate: OC[C@H]1O[C@@H](O[C@H]2[C@H](O)[C@@H](O)[C@H](O[C@H]3[C@H](O)[C@@H](O)C(O)O[C@@H]3CO)O[C@@H]2CO)[C@H](O)[C@@H](O)[C@@H]1O; assay: purified protein, by the assay type; details: other: 37° C., pH 8.0
Description: as §1, §2

[17] = substrate: OC[C@H]1O[C@H](O[C@H]2[C@H](O)[C@@H](O)C(O)O[C@@H]2CO)[C@H](O)[C@@H](O)[C@@H]1O; assay: purified protein, by the assay type; details: other: 37° C., pH 8.0
Description: as §1, §2

[18] = Chromogenic H2O2 oxidase assay / kinetic analysis on NAG
Description: as §1, §2

[19] = Chromogenic H2O2 oxidase assay / kinetic analysis on xylose
Description: as §1, §2

[20] = Chromogenic H2O2 oxidase assay / kinetic analysis on glucose
Description: as §1, §2

[21] = Chromogenic H2O2 oxidase assay / kinetic analysis on maltose
Description: as §1, §2

[22] = Chromogenic H2O2 oxidase assay / kinetic analysis on galactose
Description: as §1, §2

[23] = Chromogenic H2O2 oxidase assay / kinetic analysis on xylobiose
Description: as §1, §2

[24] = Chromogenic H2O2 oxidase assay / kinetic analysis on cellobiose
[25] = Chromogenic H2O2 oxidase assay / kinetic analysis on xylotriose
[26] = Chromogenic H2O2 oxidase assay / kinetic analysis on cellotriose
Description: as §1, §2

## OC[C@H]1O[C@H](O[C@H]2[C@H](O)[C@@H](O)C(O)O[C@@H]2CO)[C@H](O)[C@@H](O)[C@@H]1O (stereo partly shown) [Maltose, maltose]
[1]; recombinant GOOX-T1
  kcat: 6.02 s⁻¹
[2]
  Km, pH dependence: highest at pH 9
[3]
  kcat: 6 ± 0.085 s⁻¹
[3]; listed as maltose
  kcat: 6 s⁻¹

## OC[C@H]1O[C@@H](O[C@H]2[C@H](O)[C@@H](O)[C@H](O[C@H]3[C@H](O)[C@@H](O)C(O)O[C@@H]3CO)O[C@@H]2CO)[C@H](O)[C@@H](O)[C@@H]1O (stereo partly shown) [Cellotriose, cellotriose]
[1]; native GOOX purified from A. strictum T1
  catalytic efficiency (in words): highest
[4]
  kcat: 11.12 ± 0.158 s⁻¹
[5]
  kcat: 9.983 ± 0.0817 s⁻¹

B1: Acremonium strictum gluco-oligosaccharide oxidase GOOX-VN variant 1 Y300A, SEQ ID NO. 6 (Sarocladium strictum; A38V/S388N/Y300A) (protein)
chain: NSINACLAAADVEFHEEDSEGWEMDGTAFNLRVDYDPVAIAIPRSTEDIAAAVQCGLDAGVQISAKGGGHSYGSYGFGGEDGHLMLELDRMYRVSVDDDNVATIQGGARLGYTALELLDQGNRALTHGTCPAVGIGGHVLGGGYGFATHTHGLTLDWLVGATVVLADASIVHVSKTENADLFWALRGGGGGFAIVSEFEFNTFEAPEIITTYQVTTTWNRKQHVAGLKALQDWAENTMPRELSMRLEINANALNWEGNYFGNAKDLKKVLQPIMKKAGGKSTISKLVETDWYGQINTYLAGADLNITYNYDVHEYFYANSLTAPRLSDEAISAFVDYKFDNSSVRPGRGWWIQWDFHGGKNSALASHSNDETAYAHRDQLWLWQFYDNIYDYENNTSPYPESGFEFMQGFVATIEDTLPEDRKGKYFNYADTTLDKEEAQKLYWRGNLEKLQAIKAKYDPEDVFGNVVSVEPIA
[6]; deglycosylated with PNGaseF (native conditions)
  Activity, Deglycosylated: 3.9 nmol/min
[6]; glycosylated enzyme
  Activity, Glycosylated: 4.09 nmol/min
[7]
  catalytic activity (kcat) relative to GOOX-VN: approximately two times higher
[8]
  activity on mannose (in words): low activity
[8]; 10 mM mannose, 37° C., 15 min
  Specific activity Defined substrate concentration: 0.11 µmol/mg/min
[9]
  Km: 92.4 ± 4.65 mM
  kcat: 12.8 ± 0.223 s⁻¹
  kcat/Km: 138 ± 6.67 M⁻¹ s⁻¹
[10]
  Km: 51.84 ± 1.90 mM
[11]
  Km: 5.11 ± 0.15 mM
[12]
  Km: 3.15 ± 0.11 mM
[13]
  Km: 8.11 ± 0.40 mM
[14]
  Km: 96.39 ± 5.15 mM
[15]
  Km: 0.24 ± 0.02 mM
[16]
  Km: 0.25 ± 0.02 mM
[17]
  Km: 11.00 ± 0.53 mM
  kcat: 10.4 ± 0.123 s⁻¹
  kcat/Km: 947 ± 46.7 M⁻¹ s⁻¹
[18]; 10 mM NAG, 37° C., 15 min
  Specific activity Defined substrate concentration: 1.1 µmol/mg/min
[18]; substrate NAG
  Specific activity From Vmax: 12.67 µmol/mg/min
[19]; 10 mM xylose, 37° C., 15 min
  Specific activity Defined substrate concentration: 1.57 µmol/mg/min
[19]; substrate xylose
  Specific activity From Vmax: 11.22 µmol/mg/min
[20]; 10 mM glucose, 37° C., 15 min
  Specific activity Defined substrate concentration: 7.15 µmol/mg/min
[20]; substrate glucose
  Specific activity From Vmax: 13.09 µmol/mg/min
[21]; 1 mM maltose, 37° C., 15 min
  Specific activity Defined substrate concentration: 0.85 µmol/mg/min
[21]; substrate maltose
  Specific activity From Vmax: 10.31 µmol/mg/min
[22]; 10 mM galactose, 37° C., 15 min
  Specific activity Defined substrate concentration: 1.15 µmol/mg/min
[22]; substrate galactose
  Specific activity From Vmax: 13.17 µmol/mg/min
[23]; 1 mM xylobiose, 37° C., 15 min
  Specific activity Defined substrate concentration: 2.10 µmol/mg/min
[23]; substrate xylobiose
  Specific activity From Vmax: 13.16 µmol/mg/min
[24]; 1 mM cellobiose, 37° C., 15 min
  Specific activity Defined substrate concentration: 10.72 µmol/mg/min
[24]; substrate cellobiose
  Specific activity From Vmax: 13.58 µmol/mg/min
[25]; 1 mM xylotriose, 37° C., 15 min
  Specific activity Defined substrate concentration: 3.22 µmol/mg/min
[25]; substrate xylotriose
  Specific activity From Vmax: 13.73 µmol/mg/min
[26]; 1 mM cellotriose, 37° C., 15 min
  Specific activity Defined substrate concentration: 9.03 µmol/mg/min
[26]; substrate cellotriose
  Specific activity From Vmax: 11.00 µmol/mg/min
